Measured values as given in patent US20240336661A1, “PEPTIDES DERIVED FROM RUMINOCOCCUS TORQUES” (University of Copenhagen, priority 2021, published 2024).

B1: RUCILP1: 88 amino acid FNIII domain polypeptide of RUMTOR_00181 from Ruminococcus torques (protein)
chain: APVDVKVSEVTETSAKVSWKNAADGKEAAGYNVYVDGTKVNEELIAETTYNVSSLKDGTTYSVEVTAVDAAGEESAKSEKVEFTTVKK
modifications: Ruminococcus torques
notes: 88 amino acid FNIII domain polypeptide of RUMTOR_00181 from Ruminococcus torques
B2: RUCILP2: 87 amino acid irisin-like polypeptide cleaved from the Ruminococcus torques FNDC5-like protein RUMTOR_00181; recombinant, 6-His-tagged from E. coli (protein)
chain: APVDVKVSEITETSAKASWKNAADGKEAAGYNVYVDGVKLNKELLTEASCGLTNLKAETTYFVEVTAVDAAGNESVKSEKVTFKTLK
modifications: 6-His tag; Ruminococcus torques
notes: 87 amino acid irisin-like polypeptide cleaved from the Ruminococcus torques FNDC5-like protein RUMTOR_00181; recombinant, 6-His-tagged from E. coli

Assays:
[1] = test system: subcutaneous white adipose tissue (SWAT) and liver; assay: Intraperitoneal RUCILP1 or RUCILP2 for 7 days in mice, gene expression in SWAT and liver; assay type: in vivo, mouse; conditions: 1 mg/kg i.p.
Description: FIG. 46. Effects of RUCILP1 and RUCILP2 on gene expression in vivo. Recombinant RUCILPs were daily injected into peritoneum of 8-week-old wild type C57BL/6N mice at a concentration of 1 mg/kg for one week. The mRNA levels of indicated genes in subcutaneous white adipose tissue (SWAT) and liver were analyzed by qRT-PCR. n=6 animals per group. * indicates p<0.05 using one-way ANOVA followed by Dunnett post hoc correction. Data are expressed as mean±SEM.
For the RUCILPs intervention study, male mice (n=6 per group, 8 weeks of age) fed with standard chow diet were treated daily with an in intraperitoneal injection of 1 mg/kg recombinant RUCILP1, RUCILP2, or saline, respectively, for a week. All animals were then sacrificed and subcutaneous fat pads and liver were collected. The mRNA levels of indicated genes in subcutaneous fat and liver were analyzed by qRT-PCR as described in standard protocol for gene expression analysis.
Total RNA from cells or tissues was extracted according to the instructions provided by manufacturer of RNeasy mini kit (Qiagen) using QIAzol lysis reagent (Qiagen), followed by measurements of RNA purities and concentrations by NanoDrop 2000 spectrophotometer (Thermo Scientific). A total of 1 μg of RNA was used for the reverse transcription to cDNA using the iScript™ Select cDNA Synthesis Kit (Bio-Rad Laboratories). The samples were subjected to real-time PCR using the LC480 system (Roche Diagnostics) after premixing with Precision®PLUS Master Mix (Primer Design). For each indicated gene, samples were run in duplicate in a 384-well plate and ΔΔCt method was used for quantifying the expressions after normalization to the housekeeping Rpl36 or GAPDH gene.

murine C2C12 myoblasts = assay: Myotube formation and myogenesis gene expression in C2C12 myoblasts; assay type: cell-based, mouse
Description: FIG. 12. […] The C2C12 myotubes were treated with indicated doses of RUCILP2 overnight and myotube images were collected at magnification, ×10.
FIG. 28. […] White preadipocytes from human visceral fat (C-12732, PromoCell) were cultured until 80% confluent and switched into differentiation media (with 0.3 ml/ml of fetal calf serum (FCS), 8 ug/ml of d-biotin, 0.5ug/ml of insulin, 400 ng/ml of dexamethasone) in the presence of 15 nM of 21-AABP2. The differentiation process to mature adipocytes was completed after 14 days. Cells were harvested after 14 days of differentiation and the indicated genes were quantified by q-PCR. Inguinal fat tissues from 6-week-old wild-type C57BL/6J female mice were dissected and washed with PBS, minced and digested for 1 hour at 37° C. in PBS containing 10 mM CaCl2, 2.4 U/ml dispase II (Roche) and 10 mg/ml collagenase D (Roche). After adding warm DMEM/F12 (1:1) with 10% FCS, digested tissue was filtered through a […] cell strainer and centrifuged at 600×g for 10 minutes. Pellet was resuspended by 40 ml DMEM/F12 (1:1) with 10% FCS and filtered through a […] cell strainer followed by centrifugation at 600×g for 10 minutes. Pelleted inguinal stromal vascular cells were grown to confluence and split onto 12-well plates. The cells were induced to differentiate by treatment with […], 0.5 mM isobutyl methyl xanthine for 2 days. After that, cells were maintained in […] for 4 days with medium change every other day. The cells were treated with 15 nM of 21-AABP2 every other day during 6 days of differentiation. Cells were harvested after 6 days of differentiation and thermogenesis gene were quantified by q-PCR. C2C12 myoblasts (CRL-1772, ATCC) were cultured until 80% confluent and switched into differentiation media (with 2% horse serum). The treatment with 21-AABP2 started from the second day of differentiation. Cells were harvested after 4 days of differentiation and expression of myogenesis genes were quantified by q-PCR. Data are presented as mean+/−SEM of one representative experiment done in biological triplicates. Statistical significance was determined by unpaired two-tailed Student's t test, *, p<0.05
FIG. 29. […] Representative images of myoblasts (CRL-1772, ATCC) at 24h of differentiation in the presence of phosphate buffered saline (PBS, blank) or 21-AABP2 (15 nM). Presented images were from one representative experiment done in biological triplicates.
C2C12 cells were seeded on 12-well plates under DMEM/F-12 medium (Dulbecco's Modified Eagle Medium/Nutrient Mixture F-12, Fisher Scientific, #11524436), supplemented with 10% FBS (Fetal Bovine Serum, Fisher Scientific, #11550356) and 1% Penicillin-Streptomycin (Fisher Scientific, #11548876). Cell cultures were maintained in a humidified chamber with 5% CO2 at 37° C., and culture media were changed every 2-3 days.
At approximately 80% confluence, 10% fetal bovine serum was replaced with 2% horse serum to induce C2C12 myoblast cells to differentiate into myotubes. Twenty-four hours later (day 1 of the differentiation), the cells were treated with recombinant RUCILP2 or commercial recombinant irisin (Sigma, #SRP8039-10UG and Phoenix pharmaceuticals, #067-29A) or saline. For integrin inhibitor treatment, cells were treated with 10 μM of CycloRGDyK (Selleckchem, #S7844) for 10 minutes and washed with PBS before treated with recombinant RUCILP2 or commercial recombinant irisin or saline. At day three, the cells were refreshed with the same media as day one. After treatments for six hours on day 3, C2C12 cells were harvested for qRT-PCR analysis.
C2C12 myoblasts were cultured until 80% confluent and switched into differentiation media (with 2% horse serum). The treatment with 21-AABP2 started from the second day of differentiation. Representative images of the formed myotubes at 24h of differentiation in the presence of PBS (blank) or 21-AABP2 (15 nM) were captured. […]

Molecule | gene markers for white adipocytes AdipoQ and Ppara in SWAT [1] | genes involved in gluconeogenesis G6pase and Pepck1 in liver [1] | thermogenic markers Ucp1, Prdm16, Dio2 in SWAT [1] | myotube formation markers Sox8 and Stat3 (murine C2C12 myoblasts; C2C12 myoblasts, dose-response) | myotube formation (murine C2C12 myoblasts; C2C12, treated overnight) | expression of Heyl (murine C2C12 myoblasts; C2C12 myoblasts, dose-response)
B1 | did not find significant reduction | no effect | comparable effects | less dose-dependent | – | –
B2 | diminishes expression | lowered expression | comparable effects | less dose-dependent | induces myotube formation | more clear dose-dependence response
